Target: H1-HFBI: hemagglutinin ectodomain of influenza A/Texas/05/2009 (H1N1) fused to hydrophobin I (Influenza A/Texas/05/2009 (H1N1) virus | Trichoderma reesei) (UniProt P52754)
Assay: SEC

H1-HFBI: hemagglutinin ectodomain of influenza A/Texas/05/2009 (H1N1) fused to hydrophobin I (from UniProt P52754 23-97)
ratio of HMWO/monomer: 2
